# Values joined by “and” are separate entries in the source; they are usually repeats but may differ in a detail not shown here. Equal values may be shown once.
# T1: human 2Ig-B7H3 (B7H3-2Ig-His) (human, UniProt Q5ZPR3 29-466)
# T1 construct: Recombinant His-tagged protein immobilised on a CM5 chip; also called 21g-B7H3; B7H3-21g-His; not shown: His tag
# T1 sequence: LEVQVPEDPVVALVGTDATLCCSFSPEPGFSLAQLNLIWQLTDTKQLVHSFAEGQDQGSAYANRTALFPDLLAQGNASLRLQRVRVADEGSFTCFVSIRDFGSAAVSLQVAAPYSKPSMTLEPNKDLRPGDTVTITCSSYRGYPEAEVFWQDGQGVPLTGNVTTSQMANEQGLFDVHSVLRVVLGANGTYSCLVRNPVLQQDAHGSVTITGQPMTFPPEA
# T2: recombinant rat B7-H3 (rat, UniProt Q7TPB4 29-244, limits assumed)
# T2 sequence (looked up): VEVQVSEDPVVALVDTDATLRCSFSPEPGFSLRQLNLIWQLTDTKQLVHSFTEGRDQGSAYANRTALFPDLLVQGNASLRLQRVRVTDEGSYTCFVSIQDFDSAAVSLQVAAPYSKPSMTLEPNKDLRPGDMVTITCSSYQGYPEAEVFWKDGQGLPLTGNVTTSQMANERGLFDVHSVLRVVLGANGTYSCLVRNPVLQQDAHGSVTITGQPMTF
# T3: recombinant mouse B7-H3 (mouse, UniProt Q8VE98 29-244, limits assumed)
# T3 sequence (looked up): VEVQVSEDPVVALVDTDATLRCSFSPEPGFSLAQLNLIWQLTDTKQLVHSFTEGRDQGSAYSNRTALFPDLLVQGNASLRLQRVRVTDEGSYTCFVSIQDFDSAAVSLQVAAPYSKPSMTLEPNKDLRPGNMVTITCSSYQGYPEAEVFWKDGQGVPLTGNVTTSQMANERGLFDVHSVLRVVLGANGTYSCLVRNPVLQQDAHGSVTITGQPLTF
# Key:
# [1] = molecular target: T1, human 2Ig-B7H3 (B7H3-2Ig-His); assay: SPR, Biacore T200, 2Ig-B7H3-His on CM5 chip, 1:1 fit; unconjugated 8H9, lot PHB800, Table 3 run
# [2] = molecular target: T2, recombinant rat B7-H3; assay: SPR, triplicate
# [3] = molecular target: T3, recombinant mouse B7-H3; assay: SPR, triplicate
# [4] = molecular target: T1, human 2Ig-B7H3 (B7H3-2Ig-His); assay: SPR, Biacore T200, 2Ig-B7H3-His on CM5 chip, 1:1 fit; * beyond fitting limits; unconjugated 8H9, lot S219, Table 3 run
# [5] = molecular target: T1, human 2Ig-B7H3 (B7H3-2Ig-His); assay: SPR, Biacore T200, 2Ig-B7H3-His on CM5 chip, 1:1 fit; unconjugated 8H9, lot S219, Table 3 run
# [6] = molecular target: T1, human 2Ig-B7H3 (B7H3-2Ig-His); assay: SPR, Biacore T200, 2Ig-B7H3-His on CM5 chip, 1:1 fit; unconjugated 8H9, lot P76501A, Table 5 run
# [7] = molecular target: T1, human 2Ig-B7H3 (B7H3-2Ig-His); assay: SPR, Biacore T200, 2Ig-B7H3-His on CM5 chip, 1:1 fit
# Description: Both human B7H3 41g and 21g proteins were dissolved in PBS (Phosphate-Buffered Saline) to make 0.1 mg/ml stock solution and stored in −80° C. B7-H3 proteins were immobilized onto the CM5 sensor chip using Amine Coupling Kit. Both proteins were diluted to 10 ug/ml with 10 mM Sodium acetate, pH 5.0. […] A blank immobilized surface was used as a control
# The data were analyzed by the 1:1 fitting model and default parameter setting for the rate constants using the Biacore T200 Evaluation Software, and the apparent association on rate constant (kon, ka), dissociation off rate constant (koff, kd) and equilibrium dissociation constant (KD=kd/ka) were calculated.
binder,measurement,setting,value
"8H9 antibody comprising a light chain according to SEQ ID No.: 2 and heavy chain according to SEQ ID No.: 1 (antibody, mouse IgG1, kappa, V domains shown, Unconjugated mouse IgG1 mAb; also called m8H9; murine 8H9) VH: QVQLQQSGAELVKPGASVKLSCKASGYTFTNYDINWVRQRPEQGLEWIGWIFPGDGSTQYNEKFKGKATLTTDTSSSTAYMQLSRLTSEDSAVYFCARQTTATWFAYWGQGTLVTVSA VL: DIVMTQSPATLSVTPGDRVSLSCRASQSISDYLHWYQQKSHESPRLLIKYASQSISGIPSRFSGSGSGSDFTLSINSVEPEDVGVYYCQNGHSFPLTFGAGTKLELKR",Kd,[1],< 0.23 nM
same,binding result,[2],no binding (tested: 3 µg/mL)
same,binding result,[3],no binding (tested: 3 µg/mL)
same,koff,[4],< 1e-05 s⁻¹
same,Kd,[5],< 0.244 nM
same,Kd,[6],< 0.186 nM
same,kon,[7],53800 M⁻¹ s⁻¹ and 47100 M⁻¹ s⁻¹
same,t ½,[7],72.9 days and 169 days

# Source: patent US20230293738A1 (Y MABS THERAPEUTICS, published 2023)
